In publication PMC6429369, “Characterization of Stackebrandtia nassauensis GH 20 Beta-Hexosaminidase, a Versatile Biocatalyst for Chitobiose Degradation” (International Journal of Molecular Sciences, 2019):

How the values were obtained:
purified protein [1] = substrate: CC(=O)N[C@H]1[C@H](Oc2ccc([N+](=O)[O-])cc2)O[C@H](CO)[C@H](O)[C@@H]1O; assay: purified protein; assay type: biochemical, Stackebrandtia nassauensis; conditions: 50 mM phosphate-citric acid buffer pH 6.0, 37 °C, substrate 0.01-10 mM
purified protein [2] = substrate: CC(=O)N[C@H]1[C@H](Oc2ccc([N+](=O)[O-])cc2)O[C@H](CO)[C@@H](O)[C@@H]1O; assay: purified protein; assay type: biochemical, Stackebrandtia nassauensis; conditions: 50 mM phosphate-citric acid buffer pH 6.0, 37 °C, substrate 0.01-10 mM

B1: SnHex (Stackebrandtia nassauensis GH20 beta-N-acetylhexosaminidase) (Stackebrandtia nassauensis DSM 44728) (protein)
chain: VADPSHAKAATPSTIPALGEWTAASGTYTYSESSRLVVDPDHADELTDEAQTAAADLAALTGTEPEVVTGEPETGDVSLALGGGEPLGAEGYSLDVGDTFAITANADAGAFYGTRTLLQLVKQDKQIPAGTATDVPKKPERGLMVDVGRKYMSVEWLKKHIKDLSYAKLNYFHLHLSDTFGFRLESETHPEVTSEDHYTKAEIRELVDLAAKYHVTLVPEIDVPGHVNAMLAQHPELQLEDQSGNKDPYFLDLSNPDAYTLVEDLIKEYLPLFPGPYWHIGADEYVGDYGKYPQLEAYAKEHYGPDAVGKDAYYGFINWANEIVRDGGKTTRMWNDGIKEGDGTIAPEANIVVDYWSTHGIDPQKLLDRGHTVMNASWTPTYYVLGGTDIDRRWLYEDWNPDLFEKTLTIDDPKRNLGSKIHVWCDHPDAQTEDQITEGIRLPLRGLAQQTWGSPKLVEGYDDFVAIDDAIGRAPGFSSL
notes: full ORF, 1578 bp, 526 residues, about 58 kDa; pET-30a in E. coli BL21(DE3) lacZ-; Ni-NTA and anion exchange; N-terminal His/thrombin/S-tag/enterokinase by cloning (text elsewhere says C-terminal His6), tags kept; primers translate to N-term VADPSH (after ATG), C-term GFSSL-stop
Protein B1 has a Km (purified protein [1]) of 3.29 ± 0.32 mM, a Vmax (purified protein [1]) of 44 µM/min/mg and a kcat (purified protein [1]) of 0.712 ± 0.0477 s⁻¹. It also gave a kcat/Km (purified protein [1]) of 217 ± 38.3 M⁻¹ s⁻¹, a Km (purified protein [2]) of 2.47 ± 0.05 mM and a Vmax (purified protein [2]) of 57 µM/min/mg. It also gave a kcat (purified protein [2]) of 0.917 ± 0.0615 s⁻¹ and a kcat/Km (purified protein [2]) of 372 ± 33.3 M⁻¹ s⁻¹.
